These results are taken from publication PMC6292502 (Nature structural & molecular biology, 2018).

The data set “cryo-EM structure” concerns the molecule itself. The data set is described as follows: cryo-EM structure.
In the next data set the target is Cep3;Ctf13;Skp1;Ndc10 (Saccharomyces cerevisiae;Saccharomyces …, UniProt P40969;P35203;P52286;P32504 1-608;1-478;1-194;1-956, |||). The data set is described as follows: cryo-EM.
Chain of Cep3;Ctf13;Skp1;Ndc10 (P40969 whole entry, chain 1 of 3): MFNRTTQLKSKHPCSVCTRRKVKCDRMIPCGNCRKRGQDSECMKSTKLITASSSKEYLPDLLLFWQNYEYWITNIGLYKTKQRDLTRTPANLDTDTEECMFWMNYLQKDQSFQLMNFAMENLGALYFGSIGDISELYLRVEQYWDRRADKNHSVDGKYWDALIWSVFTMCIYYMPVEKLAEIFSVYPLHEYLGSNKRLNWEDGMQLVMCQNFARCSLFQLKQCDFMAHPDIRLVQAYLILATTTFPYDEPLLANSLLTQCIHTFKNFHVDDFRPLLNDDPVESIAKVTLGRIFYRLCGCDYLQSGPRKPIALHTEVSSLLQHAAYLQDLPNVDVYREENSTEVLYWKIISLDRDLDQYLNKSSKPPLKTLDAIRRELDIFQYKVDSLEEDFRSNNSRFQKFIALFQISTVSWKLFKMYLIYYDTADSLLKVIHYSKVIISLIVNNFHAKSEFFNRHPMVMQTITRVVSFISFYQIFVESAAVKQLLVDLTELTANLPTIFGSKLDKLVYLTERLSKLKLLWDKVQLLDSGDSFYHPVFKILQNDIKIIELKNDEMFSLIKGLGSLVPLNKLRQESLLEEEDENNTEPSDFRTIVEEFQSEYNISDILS
Chain of Cep3;Ctf13;Skp1;Ndc10 (P35203 whole entry, chain 2 of 3): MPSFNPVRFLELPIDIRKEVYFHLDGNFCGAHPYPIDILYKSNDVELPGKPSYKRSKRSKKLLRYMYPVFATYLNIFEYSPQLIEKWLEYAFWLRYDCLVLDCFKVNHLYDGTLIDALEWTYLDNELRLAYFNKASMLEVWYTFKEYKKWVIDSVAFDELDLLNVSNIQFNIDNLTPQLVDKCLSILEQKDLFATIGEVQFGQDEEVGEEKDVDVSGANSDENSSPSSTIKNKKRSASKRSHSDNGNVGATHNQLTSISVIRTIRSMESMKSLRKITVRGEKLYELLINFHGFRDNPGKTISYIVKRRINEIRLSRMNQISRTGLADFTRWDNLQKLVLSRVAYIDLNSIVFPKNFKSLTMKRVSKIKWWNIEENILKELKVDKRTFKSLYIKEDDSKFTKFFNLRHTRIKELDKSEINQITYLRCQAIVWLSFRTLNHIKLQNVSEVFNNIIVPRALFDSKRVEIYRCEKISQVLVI
Chain of Cep3;Ctf13;Skp1;Ndc10 (P52286 whole entry, chain 3 of 3): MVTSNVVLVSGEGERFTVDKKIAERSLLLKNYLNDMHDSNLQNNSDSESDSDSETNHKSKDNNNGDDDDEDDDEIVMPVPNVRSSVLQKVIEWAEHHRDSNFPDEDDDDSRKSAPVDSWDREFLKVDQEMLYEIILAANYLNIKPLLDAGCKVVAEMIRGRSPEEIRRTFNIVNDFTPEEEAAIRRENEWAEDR

B1: Ndc10 (natural protein)
chain: MRSSILFLLKLMKIMDVQQQQEAMSSEDRFQELVDSLKPRTAHQYKTYYTKYIQWCQLNQIIPTPEDNSVNSVPYKDLPISAELIHWFLLDTLITDDKPGEKREETEDLDEEEENSFKIATLKKIIGSLNFLSKLCKVHENPNANIDTKYLESVTKLHTHWIDSQKAITTNETNNTNTQVLCPPLLKVSLNLWNPETNHLSEKFFKTCSEKLRFLVDFQLRSYLNLSFEERSKIRFGSLKLGKRDRDAIIYHKVTHSAEKKDTPGHHQLLALLPQDCPFICPQTTLAAYLYLRFYGIPSVSKGDGFPNLNADENGSLLQDIPILRGKSLTTYPREETFSNYYTTVFRYCHLPYKRREYFNKCNLVYPTWDEDTFRTFFNEENHGNWLEQPEAFAFPDKIPFDFKKIMNFKSPYTSYSTNAKKDPFPPPKDLLVQIFPEIDEYKRHDYEGLSQNSRDFLDLMEVLRERFLSNLPWIYKFFPNHDIFQDPIFGNSDFQSYFNDKTIHSKGSPILSFDILPGFNKIYKNKTNFYSLLIERPSQLTFASSHNPDTHPTQKQESEGPLQMSQLDTTQLNELLKQQSFEYVQFQTLSNFQILLSVFNKIFEKLEMKKSSRGYILHQLNLFKITLDERIKKSKIDDADKFIRDNQPIKKEENIVNEDGPNTSRRTKRPKQIRLLSIADSSDESSTEDSNVFKKDGESIEDGAYGENEDENDSEMQEQLKSMINELINSKISTFLRDQMDQFELKINALLDKILEEKVTRIIEQKLGSHTGKFSTLKRPQLYMTEEHNVGFDMEVPKKLRTSGKYAETVKDNDDHQAMSTTASPSPEQDQEAKSYTDEQEFMLDKSIDSIEGIILEWFTPNAKYANQCVHSMNKSGNKSWRANCEALYKERKSIVEFYIYLVNHESLDRYKAVDICEKLRDQNEGSFSRLAKFLRKWRHDHQNSFDGLLVYLSN
Take B1: the binding result in “cryo-EM structure” is listed as “binds”.

B2: CEN3 DNA (147 bp CEN3) (dsDNA)
DNA 1: ATCAAATAGTACAAATAAGTCACATGATGATATTTGATTTTATTATATTTTTAAAAAAAGTAAAAAATAAAAAGTAGTTTATTTTTAAAAAATAAAATTTAAAATATTAGTGTATTTGATTTCCGAAAGTTAAAAAAGAAATAGTAAGAAGAT
DNA 2: ATCTTCTTACTATTTCTTTTTTAACTTTCGGAAATCAAATACACTAATATTTTAAATTTTATTTTTTAAAAATAAACTACTTTTTATTTTTTACTTTTTTTAAAAATATAATAAAATCAAATATCATCATGTGACTTATTTGTACTATTTGAT
Consider B2, for which, in the data set with Cep3;Ctf13;Skp1;Ndc10, the binding result was “binds”.
